Experimental data: PMC10415144, “Structural insights into CodY activation and DNA recognition”

How the values were obtained:
SaCodY [1] = target: T1, SaCodY (Staphylococcus aureus, UniProt Q2FHI3 1-257); assay: BLI; 1 uM SaCodY; Ile + GTP (implied); BLI: 20 mM Tris-HCl pH 8, 150 mM NaCl, 2 mM MgCl2, 0.1% NP-40, 25 C; 2 mM GTP and/or 10 mM Ile/Leu/Val as stated; conditions: protein: recombinant; tags: His6 removed by TEV; N-terminal Gly-Ala remnant; chain copies: 4; label: 5'-biotin on one strand; 3-nt overhang at biotinylated 5' end
T1 sequence: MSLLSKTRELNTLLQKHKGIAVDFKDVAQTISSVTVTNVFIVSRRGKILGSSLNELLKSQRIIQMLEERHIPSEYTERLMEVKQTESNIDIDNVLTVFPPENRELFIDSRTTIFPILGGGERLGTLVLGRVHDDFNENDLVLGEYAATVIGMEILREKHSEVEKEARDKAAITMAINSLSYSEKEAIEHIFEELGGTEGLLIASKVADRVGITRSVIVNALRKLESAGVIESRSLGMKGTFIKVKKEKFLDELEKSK

EfCodY [2] = target: T2, EfCodY (Enterococcus faecalis, UniProt Q834K5 1-260); assay: BLI; 10 mM Leu; BLI: 20 mM Tris-HCl pH 8, 150 mM NaCl, 2 mM MgCl2, 0.1% NP-40, 25 C; 2 mM GTP and/or 10 mM Ile/Leu/Val as stated; conditions: protein: recombinant; tags: His6 removed by TEV; N-terminal Gly-Ala remnant; chain copies: 4; label: 5'-biotin on one strand; 3-nt overhang at biotinylated 5' end
T2 sequence: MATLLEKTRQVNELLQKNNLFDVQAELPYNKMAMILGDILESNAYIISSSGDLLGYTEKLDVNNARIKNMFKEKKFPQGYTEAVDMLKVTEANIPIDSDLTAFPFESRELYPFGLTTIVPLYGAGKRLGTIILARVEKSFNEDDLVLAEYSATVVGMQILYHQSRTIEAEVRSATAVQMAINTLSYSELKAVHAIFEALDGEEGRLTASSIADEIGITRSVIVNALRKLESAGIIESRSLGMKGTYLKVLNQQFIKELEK

SaCodY [3] = target: T1, SaCodY; assay: BLI; Ile + GTP (implied); BLI: 20 mM Tris-HCl pH 8, 150 mM NaCl, 2 mM MgCl2, 0.1% NP-40, 25 C; 2 mM GTP and/or 10 mM Ile/Leu/Val as stated; conditions: protein: recombinant; tags: His6 removed by TEV; N-terminal Gly-Ala remnant; chain copies: 4; label: 5'-biotin on one strand; 3-nt overhang at biotinylated 5' end
SaCodY [4] = target: T1, SaCodY; assay: X-ray crystallography; Ile + GTP; two dimers per duplex; BLI: 20 mM Tris-HCl pH 8, 150 mM NaCl, 2 mM MgCl2, 0.1% NP-40, 25 C; 2 mM GTP and/or 10 mM Ile/Leu/Val as stated; conditions: protein: recombinant; tags: His6 removed by TEV; N-terminal Gly-Ala remnant; chain copies: 4; blunt
EfCodY [5] = target: T2, EfCodY; assay: X-ray crystallography; Leu (bound in dimer 1 only); two dimers per duplex; BLI: 20 mM Tris-HCl pH 8, 150 mM NaCl, 2 mM MgCl2, 0.1% NP-40, 25 C; 2 mM GTP and/or 10 mM Ile/Leu/Val as stated; conditions: protein: recombinant; tags: His6 removed by TEV; N-terminal Gly-Ala remnant; chain copies: 4; blunt
EfCodY [6] = target: T2, EfCodY; assay: BLI; 1 uM protein; 10 mM Leu; BLI: 20 mM Tris-HCl pH 8, 150 mM NaCl, 2 mM MgCl2, 0.1% NP-40, 25 C; 2 mM GTP and/or 10 mM Ile/Leu/Val as stated; conditions: protein: recombinant; tags: His6 removed by TEV; N-terminal Gly-Ala remnant; chain copies: 4; label: 5'-biotin on one strand; 3-nt overhang at biotinylated 5' end
SaCodY [7] = target: T1, SaCodY; assay: BLI; 1 uM protein; 10 mM Ile + 2 mM GTP; BLI: 20 mM Tris-HCl pH 8, 150 mM NaCl, 2 mM MgCl2, 0.1% NP-40, 25 C; 2 mM GTP and/or 10 mM Ile/Leu/Val as stated; conditions: protein: recombinant; tags: His6 removed by TEV; N-terminal Gly-Ala remnant; chain copies: 4; label: 5'-biotin on one strand; 3-nt overhang at biotinylated 5' end
EfCodY quadruple mutant = EfCodY quadruple mutant (Enterococcus faecalis, UniProt Q834K5 1-260, Y186A;R238A;L240A;Y246A); assay: BLI; 8 uM protein, 10 mM Leu; BLI: 20 mM Tris-HCl pH 8, 150 mM NaCl, 2 mM MgCl2, 0.1% NP-40, 25 C; 2 mM GTP and/or 10 mM Ile/Leu/Val as stated; conditions: protein: recombinant; tags: His6 removed by TEV; N-terminal Gly-Ala remnant; chain copies: 2; label: 5'-biotin on one strand; 3-nt overhang at biotinylated 5' end

B1: hutP2 single site (dsDNA)
DNA 1: AGTTCAGAATTTTTAGGAATTGAGTG
DNA 2: CACTCAATTCCTAAAAATTCTGAACT
SaCodY [1]
  binding result: no binding

B2: hutP operator overlapping sites (dsDNA)
DNA 1: AGTTAATAGTTATCAGAATTTTTAGGAATTGAGTG
DNA 2: CACTCAATTCCTAAAAATTCTGATAACTATTAACT
EfCodY [2]
  binding result: binds
SaCodY [3]
  Kd: 598 nM

B3: hutP1 single site (dsDNA)
DNA 1: AGTTAATAGTTATCAGAATTTTTAGG
DNA 2: CCTAAAAATTCTGATAACTATTAACT
SaCodY [3]
  Kd: 1230 nM

B4: 30-bp crystallization DNA (dsDNA)
DNA 1: GATAATTTTCAGAATTTTCAGAAAATTTAG
DNA 2: CTAAATTTTCTGAAAATTCTGAAAATTATC
SaCodY [4]
  binding result: binds
EfCodY [5]
  binding result: binds

B5: consensus T>G (dsDNA)
DNA 1: CCGCCGGATAATTTGCAGCATTTGCAGCAAATTTAGCCG
DNA 2: CGGCTAAATTTGCTGCAAATGCTGCAAATTATCCGGCGG
EfCodY [6]
  binding result: no binding
SaCodY [7]
  binding result: no binding

B6: 24-nt sequence-optimized overlapping sites (consensus) (dsDNA)
DNA 1: CCGCCGGATAATTTTCAGAATTTTCAGAAAATTTAGCCG
DNA 2: CGGCTAAATTTTCTGAAAATTCTGAAAATTATCCGGCGG
EfCodY quadruple mutant
  binding result: no binding
